Patent publication US20060068386A1, “Complete genome and protein sequence of the hyperthermophile methanopyrus kandleri av19 and monophyly of archael methanogens and methods of use thereof” (priority 2002, published 2006)
Where two headings read alike, the source gives them in different places.

How the values were obtained:
[1] = test system: DNA duplex of FIG. 16 (PTJ); test: Initial rates of primer extension reactions in salts (inhibition of polymerases and chimeras by NaCl, KCl, K-Glu); type: biochemical
Procedure: The polymerase activities of the four chimeras were tested by measuring initial rates of primer extension reactions. The reactions were carried out at low concentrations of substrate, when the initial rates were proportional both to total protein and PTJ concentrations. When [PTJ] is much less than Kmapp, the initial rate is determined as in Equation 1: v1=kapp/Kmapp*[Et]*[PTJ]1 Eq. 1 • where Kmapp and kapp are apparent Michaelis and catalytic constants, respectively.
The concentrations of sodium chloride (NaCl), potassium chloride (KCl) and potassium glutamate (K-Glu) were varied to assess inhibition of the Stoffel fragment and KlenTaq, and the four chimeras by salts, and to estimate the effects of the HhH domains.
Experimental values of initial polymerization rates were analyzed by nonlinear regression analysis using Equation 2: [formula] where v and v0 are initial primer extension rates with and without salt, respectively, Ki is the apparent inhibition constant; and α is the cooperativity parameter.
In Table 2, to take into account the activation of Pfu polymerase and the PfuC2 hybrid by KGlu (data entries marked with an asterisk (*), the experimental values of initial polymerization rates were analyzed by nonlinear regression using the Equation 3: [formula]
where v and v0 are initial primer extension rates with and without salt, respectively; Ki is an apparent inhibition constant, α is a parameter of cooperativity, β and γ are parameters of activation. Since γ≅2, it is likely that two ions of Glu^− bind to the Pfu polymerase catalytic domain without inhibiting the polymerase activity.

[2] = test system: Mka PolB 3'-5' exonuclease activity; test: Effect of salts on 3'-5' exonuclease activity of Mka PolB; type: biochemical, Methanopyrus kandleri
Procedure: (§1) A 3′→5′ exonuclease activity of polB polymerase was measured at the same conditions as in the primer extension assay, except omitting dideoxynucleotides. A fluorescent primer:
Conclusions: • 1. KGlu inhibits the 3′-5′ exonuclease activity of Mka PolB, while NaCl stimulates it. • 2. KGlu, diphosphoglycerate, and Mka PCNA (see below) increase the polymerase activity of PolB. • 3.

M.K. polB DNA polymerase = M.K. polB DNA polymerase (Methanopyrus kandleri, UniProt Q8TWJ5); test: Effects of media components on M.K. polB DNA polymerase activity (primer extension); type: biochemical
Procedure: (§2) DNA polymerase reaction mixtures (15-20 μl) contained dATP, dTTP, dCTP, and dGTP (1 mM each), 4.5 mM MgCl2, detergents Tween 20 and Nonidet P-40 (0.2% each), fixed concentrations of PTJ—duplex, other additions, as indicated, and appropriate amounts of polB in 30 mM Tris-HCl buffer pH 8.0 (25° C.). The background reaction mixtures contained all components except DNA polymerases. Primer extensions were carried out for a preset time at 75° C. in PTC-150 Minicycler (MJ Research, Inc.; Waltham, Mass.). 5 μl samples were removed and chilled to 4° C. followed by immediate addition of 20 μl of 20 mM EDTA. The samples were desalted by centrifugation through Sephadex G-50 spun columns, diluted, and analyzed on a ABI Prism 377 DNA sequencer (Applied BioSystems; Foster City, Calif.). For each sample, raw data were extracted from the sequencer trace files with the program Chromas 1.5 (Technelysium Pty Ltd., Australia), and the fluorescent signals were analyzed by our nonlinear regression data analysis programs written in Fortran. The programs applied Powell algorithms to approximate the signals by a number of Gaussian peaks and calculate integral fluorescent intensities for each product peak. The total amount of fluorescent products for each time of incubation was determined, and the initial rates of extension were calculated.
(§3) The next two tables (Table 4 and 5) display effects of various media components on M.K. polB DNA polymerase activity. Initial rates of primer extension reaction were measured as described by Pavlov et al., 2002.

polB DNA polymerase = test: Thermostability of polB DNA polymerase in various media; type: biochemical, Methanopyrus kandleri; conditions: 1 M Betaine, potassium glutamate, 100° C.
Procedure: To determine DNA polymerase activity and thermostability of DNA polymerase polB in various media. Proteins in 25 μl of 20 mM Tris-HCl buffer (pH 8.0 at 25° C.) containing indicated concentrations of salts and betaine were incubated in PTC-150 Minicycler (MJ Research) at 95° C. or 100° C. 4 μl samples were removed at defined times of incubation and assayed for primer extension activity.
The stabilizing effect of betaine is diminished in the presence of organic solvents DMSO and formamide.

[3] = test system: fluorescent primer *FL-GTAATACGACTCACTATAGGG; test: 3'→5' exonuclease activity of polB; type: biochemical
Procedure: as §1
was incubated with the enzyme at defined times. Then, the amounts of formed products were calculated, and the initial rates of hydrolysis were found, as in case of primer extension. It is interesting that polB was able to cleave off only 9 nucleotides of the primer, that is, the […] primer was the shortest substrate that polB could process.

[4] = test system: fluorescent duplex substrate containing a primer-template junction (PTJ); test: Primer extension assay of PolB DNA polymerase activity; type: biochemical
[5] = molecular target: T1, M. kandleri AV19 PCNA (MK1030), DNA polymerase sliding clamp
T1 chain: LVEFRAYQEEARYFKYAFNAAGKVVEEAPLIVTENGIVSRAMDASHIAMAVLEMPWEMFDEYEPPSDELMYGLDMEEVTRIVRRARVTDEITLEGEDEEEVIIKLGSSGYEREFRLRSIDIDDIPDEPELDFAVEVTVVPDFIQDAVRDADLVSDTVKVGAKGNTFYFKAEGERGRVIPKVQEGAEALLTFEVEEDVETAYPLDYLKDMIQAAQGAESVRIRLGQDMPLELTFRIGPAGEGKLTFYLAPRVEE

[6] = test system: fluorescent duplex substrate containing a primer-template junction (PTJ); test: Primer extension assay of PolB DNA polymerase activity; type: biochemical; remark: listed apart in the source
Procedure: A primer extension assay was applied with a fluorescent duplex substrate containing a primer-template junction (PTJ). The duplex shown in FIG. 18 was prepared by annealing a 5′-end labeled with fluorescein 20-nt long primer with a 40-nt long template:
as §2, §3
Table 6 illustrates the dependency of initial rates of primer extension for Duplex 2 shown in FIG. 17 on temperature of the reaction. Initial rates of primer extension reaction were measured as described by Pavlov et al., 2002.

Chain of M.K. polB DNA polymerase (Q8TWJ5 entry or part of it): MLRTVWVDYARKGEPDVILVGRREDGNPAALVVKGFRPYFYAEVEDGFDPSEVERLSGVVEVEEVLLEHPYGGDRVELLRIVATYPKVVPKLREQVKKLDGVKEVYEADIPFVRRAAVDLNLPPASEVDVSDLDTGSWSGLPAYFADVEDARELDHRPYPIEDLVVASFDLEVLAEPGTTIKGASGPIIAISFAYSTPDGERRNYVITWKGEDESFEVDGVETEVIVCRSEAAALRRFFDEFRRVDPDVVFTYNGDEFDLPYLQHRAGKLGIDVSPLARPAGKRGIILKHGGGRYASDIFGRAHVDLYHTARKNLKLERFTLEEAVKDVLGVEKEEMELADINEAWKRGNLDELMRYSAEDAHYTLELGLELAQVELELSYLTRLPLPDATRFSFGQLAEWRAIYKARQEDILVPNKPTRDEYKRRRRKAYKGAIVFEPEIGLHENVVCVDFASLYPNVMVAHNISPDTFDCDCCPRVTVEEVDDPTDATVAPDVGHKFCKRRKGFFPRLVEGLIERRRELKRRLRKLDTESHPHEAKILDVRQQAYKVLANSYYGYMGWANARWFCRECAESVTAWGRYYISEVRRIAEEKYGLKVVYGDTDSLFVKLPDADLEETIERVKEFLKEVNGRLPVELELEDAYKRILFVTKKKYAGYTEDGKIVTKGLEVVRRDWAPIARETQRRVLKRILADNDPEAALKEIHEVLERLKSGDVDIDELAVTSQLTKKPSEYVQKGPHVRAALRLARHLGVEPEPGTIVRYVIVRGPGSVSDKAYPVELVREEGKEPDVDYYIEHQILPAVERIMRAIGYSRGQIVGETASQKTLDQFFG

## Taq Polymerase: DNA polymerase from Thermus aquaticus [reference compound]
[1]; KGlu versus KCl
  increase of Ki on substituting KCl with KGlu: 4 fold
[1]; NaCl
  NaCl concentration at which 20% inhibition of primer extension reaction occurs: about 90 mM

## [Cl-].[Na+] [NaCl, sodium chloride]
[2]
  effect on 3'-5' exonuclease activity of Mka PolB: stimulates

## N[C@@H](CCC(=O)[O-])C(=O)[O-].[K+].[K+] [KGlu, potassium glutamate]
[2]
  effect on 3'-5' exonuclease activity of Mka PolB: inhibits
M.K. polB DNA polymerase
  effect on polymerase activity of PolB: increase
M.K. polB DNA polymerase; 0.8 M of the salt
  increase of polymerase activity of polB: about twenty-fold

## N [NH4OH]
M.K. polB DNA polymerase; M.K. polB DNA polymerase activity, primer extension, read-out: IC50 (Inhibition constants in different media)
  IC50: < 30 mM

## C[N+](C)(C)CC(=O)O [Betaine]
polB DNA polymerase
  effect on thermostability of polB DNA polymerase: stabilize specifically polB DNA polymerase

## O=C(O)[C@@H](COP(=O)(O)O)OP(=O)(O)O [diphosphoglycerate]
M.K. polB DNA polymerase
  effect on polymerase activity of PolB: increase

B1: M. kandleri AV19 DNA polymerase family B (Mka PolB) (MK1039) (protein)
chain: LLRTVWVDYARKGEPDVILVGRREDGNPAALVVKGFRPYFYAEVEDGFDPSEVERLSGVVEVEEVLLEHPYGGDRVELLRIVATYPKVVPKLREQVKKLDGVKEVYEADIPFVRRAAVDLNLPPASEVDVSDLDTGSWSGLPAYFADVEDARELDHRPYPIEDLVVASFDLEVLAEPGTTIKGASGPIIAISFAYSTPDGERRNYVITWKGEDESFEVDGVETEVIVCRSEAAALRRFFDEFRRVDPDVVFTYNGDEFDLPYLQHRAGKLGIDVSPLARPAGKRGIILKHGGGRYASDIFGRAHVDLYHTARKNLKLERFTLEEAVKDVLGVEKEEMELADINEAWKRGNLDELMRYSAEDAHYTLELGLELAQVELELSYLTRLPLPDATRFSFGQLAEWRAIYKARQEDILVPNKPTRDEYKRRRRKAYKGAIVFEPEIGLHENVVCVDFASLYPNVMVAHNISPDTFDCDCCPRVTVEEVDDPTDATVAPDVGHKFCKRRKGFFPRLVEGLIERRRELKRRLRKLDTESHPHEAKILDVRQQAYKVLANSYYGYMGWANARWFCRECAESVTAWGRYYISEVRRIAEEKYGLKVVYGDTDSLFVKLPDADLEETIERVKEFLKEVNGRLPVELELEDAYKRILFVTKKKYAGYTEDGKIVTKGLEVVRRDWAPIARETQRRVLKRILADNDPEAALKEIHEVLERLKSGDVDIDELAVTSQLTKKPSEYVQKGPHVRAALRLARHLGVEPEPGTIVRYVIVRGPGSVSDKAYPVELVREEGKEPDVDYYIEHQILPAVERIMRAIGYSRGQIVGETASQKTLDQFFG
[3]
  nucleotides of the primer cleaved off: 9 nucleotides
  shortest substrate that polB could process: 13 nt
[4]
  resistance to aggressive chemicals: resistant to aggressive chemicals
[5]
  hydrolysis of the primer annealed to the duplex (3'-5' exonuclease activity of polB): suppression of hydrolysis of the primer annealed to the duplex
[6]
  use of dUTP for primer extensions: can use dUTP for primer extensions
[6]; 0.5 M NaCl
  Initial Rate of Primer Extension: 0.123 ± 0.003 µM/min
[6]; 0.5 M NaCl + PCNA
  Initial Rate of Primer Extension: 0.214 ± 0.014 µM/min
[6]; 1 M DPG
  Initial Rate of Primer Extension: 2.17 ± 0.16 µM/min
[6]; 1 M KGlu
  Initial Rate of Primer Extension: 2.74 ± 0.18 µM/min
[6]; 1 M KGlu, dUTP
  Initial Rate of Primer Extension: 1.82 ± 0.09 µM/min
[6]; Duplex 2 (FIG. 17)
  temperature up to which primers are extended: up to 105 °C
[6]; Duplex 2 (FIG. 17), 50 °C
  Initial Rate of Primer Extension: 1.01 ± 0.06 µM/min
[6]; Duplex 2 (FIG. 17), 55 °C
  Initial Rate of Primer Extension: 1.08 ± 0.09 µM/min
[6]; Duplex 2 (FIG. 17), 60 °C
  Initial Rate of Primer Extension: 1.12 ± 0.08 µM/min
[6]; Duplex 2 (FIG. 17), 65 °C
  Initial Rate of Primer Extension: 1.23 ± 0.05 µM/min
[6]; Duplex 2 (FIG. 17), 70 °C
  Initial Rate of Primer Extension: 1.01 ± 0.07 µM/min
[6]; Duplex 2 (FIG. 17), 75 °C
  Initial Rate of Primer Extension: 0.95 ± 0.07 µM/min
[6]; Duplex 2 (FIG. 17), 80 °C
  Initial Rate of Primer Extension: 0.92 ± 0.07 µM/min
[6]; Duplex 2 (FIG. 17), 85 °C
  Initial Rate of Primer Extension: 0.94 ± 0.07 µM/min
[6]; Duplex 2 (FIG. 17), 90 °C
  Initial Rate of Primer Extension: 0.71 ± 0.05 µM/min
[6]; Duplex 2 (FIG. 17), 95 °C
  Initial Rate of Primer Extension: 0.62 ± 0.04 µM/min
[6]; Duplex 2 (FIG. 17), 100 °C
  Initial Rate of Primer Extension: 0.62 ± 0.06 µM/min
[6]; Duplex 2 (FIG. 17), 105 °C
  Initial Rate of Primer Extension: 0.55 ± 0.09 µM/min

B2: Pfu polymerase: whole size Pfu polymerase (protein, UniProt P61875 1-775, looked up)
chain: MILDVDYITEEGKPVIRLFKKENGKFKIEHDRTFRPYIYALLRDDSKIEEVKKITGERHGKIVRIVDVEKVEKKFLGKPITVWKLYLEHPQDVPTIREKVREHPAVVDIFEYDIPFAKRYLIDKGLIPMEGEEELKILAFDIETLYHEGEEFGKGPIIMISYADENEAKVITWKNIDLPYVEVVSSEREMIKRFLRIIREKDPDIIVTYNGDSFDFPYLAKRAEKLGIKLTIGRDGSEPKMQRIGDMTAVEVKGRIHFDLYHVITRTINLPTYTLEAVYEAIFGKPKEKVYADEIAKAWESGENLERVAKYSMEDAKATYELGKEFLPMEIQLSRLVGQPLWDVSRSSTGNLVEWFLLRKAYERNEVAPNKPSEEEYQRRLRESYTGGFVKEPEKGLWENIVYLDFRALYPSIIITHNVSPDTLNLEGCKNYDIAPQVGHKFCKDIPGFIPSLLGHLLEERQKIKTKMKETQDPIEKILLDYRQKAIKLLANSFYGYYGYAKARWYCKECAESVTAWGRKYIELVWKELEEKFGFKVLYIDTDGLYATIPGGESEEIKKKALEFVKYINSKLPGLLELEYEGFYKRGFFVTKKRYAVIDEEGKVITRGLEIVRRDWSEIAKETQARVLETILKHGDVEEAVRIVKEVIQKLANYEIPPEKLAIYEQITRPLHEYKAIGPHVAVAKKLAAKGVKIKPGMVIGYIVLRGDGPISNRAILAEEYDPKKHKYDAEYYIENQVLPAVLRILEGFGYRKEDLRYQKTRQVGLTSWLNIKKS
modifications: full-length
[1]; inhibition by KCl, read-out: Ki (KCl), apparent inhibition constant
  Ki: 42.6 ± 1 mM
[1]; inhibition by NaCl, nonlinear regression Eq. 2, read-out: Ki (NaCl), apparent inhibition constant
  Ki: 51.5 ± 1 mM
